Experimental data taken from the nanobody polyreactivity screen of Harvey et al. (2022).

Assay: yeast display, Sf9 membrane polyspecificity reagent, FACS + sequencing; frameworks hold sequencing errors
Outline: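 In a synthetic yeast display library (Saccharomyces cerevisiae BJ5465), nanobody expression was induced with galactose for 36–48 hours. FACS gates were set low and high (top ~1%) using anti-HA fluorescence for expression and streptavidin fluorescence for binding of the Sf9 membrane reagent. Each polyreactivity label is drawn from the gate of origin.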

QVQLVESGGGLVQAGGSLRLSCAASGNTFRSYAMGWYRQAPGKERELVAAISGRGGSTYYADSVKGRFTISRDNAKNTVDLQMNSRKPEDTAVYYCAAESRRVNYANDYWGQGTQVTVSS
polyreactivity (PSR sort gate): high polyreactivity

QVQLVESGGGLVQAGGRLRLSCAASGSIFAGYVMGWYRQAPGKERELVAAISKSGGSTYYADSVKGRFTISRDNAKNTVSLQMNSLKPEDTAVYYSAKDHYYVDYDYWGQGTQVTVSS
polyreactivity (PSR sort gate): high polyreactivity

QVQLVESGGCLVQAGGSLRLRCAASGRTLRCYAMGWYRQAPGKEREFVAAISRGTVGTYYADSVKGRFTISRDNAKNTVYLQMNSLKPEDTAVYYCAADRFAYFTNLRLGYYSWGQGTQVTVSS
polyreactivity (PSR sort gate): low polyreactivity

QVQLVESGGGLVQAGGRLRLSCAASGYTFEGYAMGWDRQAPGKERELVAAISRSGGRRYYADSVKGRFTISRDNAKNTVYLQMNSLKPEDTAVYYWAAGGYYQRTRGYWGQGTQVTVSS
polyreactivity (PSR sort gate): high polyreactivity

QVQLVESGGGIVQAGRSLRLSCPASGLIFGPYTMGWYRQAPGKERELVAAISRSGGITYYADSVKGRFTISRDNATNTVYLQMNSLKPEDTAVYYCAARLVRESEPLGYWGQGTQVTLSS
polyreactivity (PSR sort gate): high polyreactivity

QVQLVESGGCLVQAGGSLRLICAASGSTFLLNAMGWYRQAPGKVRELVAAITSSGRTNYADSVKGRFTISRDNAKNTVYLQMNSLKPEDTAVYYCNTRYSPGYQGTDVDYWRQGTQVTVSS
polyreactivity (PSR sort gate): low polyreactivity

QVQLVESGGGLVQAGGSLRLSCAASGSTFPSYTMGWYRLAPGKERELVAAITLSGGSTYYADSVKGRFTISRDKAKNTVSLQMNSQKPEDTAVYYCAAYSQRGYDYWGQGTQVTVSS
polyreactivity (PSR sort gate): low polyreactivity

QVQLVESGGGLVQAGGSLRLSCAASGSIFKQYAMGWYRQAPGKERELVARITGSGGSTYYADSVKGRFTISRDNAKNTVYLQLNSLKPEDTAVYYCANKRYARSSGGYDYWGQGTQVTVSS
polyreactivity (PSR sort gate): low polyreactivity

QVQLVESGGGLVQAGGSLRLSCAASGSTFIRNAMGWYRQAPGKERELVAVISSGGSTYYADSVKGRFTISRDNAKNTVYLQMNSLKPEDTAVYYCAAGDPQKEDYWGQGTQVTVSS
polyreactivity (PSR sort gate): low polyreactivity

QVQLVESGGGLVQAGGSLRLSCAASGSISYDYAMGWDRQAPGKERELVASITSRGGSTYADSVKGRFTISRDKAKNTVYLQMNSLKPEDTAVYYCAADAIPNLIFISLPFGLDYWGQGTQVTVSS
polyreactivity (PSR sort gate): low polyreactivity

QVQLVESGGGLVQAGGSLRLSCAASGSIFYSYAMGWYRQAPGKERELVARITKRGGRTYYADSVKGRFTISRDNAKNTVYLQMNSLKPEDTAVYYCAATTGHRTYRYYYWGQGTQVTVSS
polyreactivity (PSR sort gate): high polyreactivity

QVQLVESGGGLVQAGGSLRLSFAASGRIFYQYAMGWYRQAPGKERELVAAINSYGGRTYYADSVKGRFTISRDNAKYTVYLQMNSLKPEDTAVYYCAKLRVPYYAEYGYWGQGTQVTVSS
polyreactivity (PSR sort gate): high polyreactivity

QLQLVESGGVLVQAGGSLRLSCAASGLTFAYYAMGSYRQAPGKERELVAAISWNGGRTYYAYSVKGRFTISRDNAKNTVYLQMNSLKPEDTAVYYCATRFYRPRDGLYDYWGQGTQVTVSS
polyreactivity (PSR sort gate): high polyreactivity

QVQLVESGGGLVQAGGSLRLTCAASGSIFRSYAMGWYRQAPGNERELVAAISWRGGRTYYADSVKGRFTISRDNAKNTVYLQRNSLKPADTAVYYCAARKRAQQGTRDHDYWGQGTQVTVSS
polyreactivity (PSR sort gate): high polyreactivity

QDQIVESGGGLVQAGGSLRLSCASYGSTFDRYAMGWYRQAQGKERELVAVITQSGSSTYYADSVKGRFTISRDNAKNTVYLQMKSLKPEDTAVYYCAARYQGSRGQEYYYWGQGTQVTVSS
polyreactivity (PSR sort gate): high polyreactivity

QVQLVESGGGLVQAGGILRLSCAASGFIFYHYAMGWYRQAPGKERELVASITSGGRTYYADSVKGRFTISRDNAKNTVSLQMNRLKPEDTAVYYCAAAYYYYSSPRFTTGMDYWGQGTQVTVSS
polyreactivity (PSR sort gate): high polyreactivity

QVQLVESGGGLVQAGGSLRLSCAASGSTFGYYAMGWYRQAPGKERELVAAISGSGTSTYYADSVKGRFTISRDNAKNTVYLQMNSLKPEDTAVYYCATRYRYTGCGYWGQGSQVTVSS
polyreactivity (PSR sort gate): low polyreactivity
